Data taken from patent US20250381289A1 (Genmab, published 2025).

Tests used:
[1] = molecular target: T1, EGFR on EGFR and cMET co-expressed tumor cell lines (UniProt P00533 25-1210, limits assumed); assay: flow cytometry, SNU-5 cells (co-express EGFR and cMET; both arms contribute)
T1 construct: whole, on cells

[2] = molecular target: T2, cMET on EGFR and cMET co-expressed tumor cell lines (UniProt P08581 25-1390, limits assumed); assay: as above
T2 construct: whole, on cells

[3] = molecular target: human HER2 recombinant protein (human, UniProt P04626 23-652); assay: ELISA, coated human HER2, anti-human Fc-HRP
Experimental: (§1) Binding specificity was tested by ELISA according to the standard protocol. Specifically, 96-well plates were coated with 100 ng/well human EGFR, human HER2, human HER3, human HER4, human cMET, human Sema3A recombinant protein in PBS, incubated overnight at 4° C. Plates were washed twice by TBS+0.05% Tween20. 200 μL blocking buffer (2% BSA in PBS) was added to each well and incubated at 37° C. for 2 h. After wash, Serial diluted antibodies were added to the ELISA plate with 100 μL per well and incubated for 1 h at room temperature. Then plates were washed for 3 times. HRP conjugated anti-human Fc antibody solution (Abcam, ab98624) was added to the plate with 100 μL per well. The plates were incubated at room temperature for 1 h and then washed for 3 times. […] Finally, read the absorbance at A₄₅₀ and A₆₃₀.

[4] = molecular target: T1, EGFR on EGFR and cMET co-expressed …; assay: flow cytometry, A431 cells (co-express EGFR and cMET; both arms contribute)
[5] = molecular target: T2, cMET on EGFR and cMET co-expressed …; assay: as above
[6] = molecular target: T3, Human cMET (human); assay: ELISA, coated human cMET, anti-human Fc-HRP
T3 construct: recombinant protein; also called human cMET recombinant protein
T3 sequence (P08581 whole entry): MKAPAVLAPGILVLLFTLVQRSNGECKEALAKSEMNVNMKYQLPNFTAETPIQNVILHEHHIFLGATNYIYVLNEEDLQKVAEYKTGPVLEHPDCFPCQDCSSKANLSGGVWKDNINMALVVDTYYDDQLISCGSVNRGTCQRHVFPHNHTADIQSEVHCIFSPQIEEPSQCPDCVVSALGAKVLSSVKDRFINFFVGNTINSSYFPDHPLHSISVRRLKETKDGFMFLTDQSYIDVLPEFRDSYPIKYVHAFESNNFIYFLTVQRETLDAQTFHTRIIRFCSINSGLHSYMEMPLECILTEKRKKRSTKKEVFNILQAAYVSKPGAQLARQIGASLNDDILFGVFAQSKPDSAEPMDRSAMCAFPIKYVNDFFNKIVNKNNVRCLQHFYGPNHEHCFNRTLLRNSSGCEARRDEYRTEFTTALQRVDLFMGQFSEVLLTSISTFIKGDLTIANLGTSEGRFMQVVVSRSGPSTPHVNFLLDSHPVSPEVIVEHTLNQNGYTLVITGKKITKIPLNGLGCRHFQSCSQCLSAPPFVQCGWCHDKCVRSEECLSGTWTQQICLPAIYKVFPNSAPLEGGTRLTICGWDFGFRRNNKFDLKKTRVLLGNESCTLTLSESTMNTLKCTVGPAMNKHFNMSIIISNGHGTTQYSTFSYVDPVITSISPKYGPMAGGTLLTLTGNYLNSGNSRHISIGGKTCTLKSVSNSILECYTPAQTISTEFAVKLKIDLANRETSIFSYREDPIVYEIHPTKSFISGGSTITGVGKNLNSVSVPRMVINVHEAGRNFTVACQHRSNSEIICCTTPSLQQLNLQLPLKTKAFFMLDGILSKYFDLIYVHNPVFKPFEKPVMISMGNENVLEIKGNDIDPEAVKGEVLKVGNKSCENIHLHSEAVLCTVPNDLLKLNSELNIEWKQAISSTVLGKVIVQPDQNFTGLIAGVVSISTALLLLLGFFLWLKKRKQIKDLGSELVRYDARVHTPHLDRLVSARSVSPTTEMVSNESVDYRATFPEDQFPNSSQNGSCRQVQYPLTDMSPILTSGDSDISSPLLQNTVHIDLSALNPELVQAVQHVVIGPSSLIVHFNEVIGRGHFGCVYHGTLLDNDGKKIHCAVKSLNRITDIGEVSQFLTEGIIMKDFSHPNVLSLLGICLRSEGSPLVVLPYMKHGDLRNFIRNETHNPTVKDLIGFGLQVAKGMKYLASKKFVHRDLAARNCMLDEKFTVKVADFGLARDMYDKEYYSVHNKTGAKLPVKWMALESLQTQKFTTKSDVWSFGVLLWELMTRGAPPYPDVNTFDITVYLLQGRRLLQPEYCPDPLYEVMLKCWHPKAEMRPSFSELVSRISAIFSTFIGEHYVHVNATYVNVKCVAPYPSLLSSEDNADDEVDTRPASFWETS
Experimental: as §1

[7] = molecular target: T4, human Sema3A recombinant protein (human, UniProt Q14563 21-771, limits assumed); assay: ELISA, coated human Sema3A, anti-human Fc-HRP
T4 sequence (looked up): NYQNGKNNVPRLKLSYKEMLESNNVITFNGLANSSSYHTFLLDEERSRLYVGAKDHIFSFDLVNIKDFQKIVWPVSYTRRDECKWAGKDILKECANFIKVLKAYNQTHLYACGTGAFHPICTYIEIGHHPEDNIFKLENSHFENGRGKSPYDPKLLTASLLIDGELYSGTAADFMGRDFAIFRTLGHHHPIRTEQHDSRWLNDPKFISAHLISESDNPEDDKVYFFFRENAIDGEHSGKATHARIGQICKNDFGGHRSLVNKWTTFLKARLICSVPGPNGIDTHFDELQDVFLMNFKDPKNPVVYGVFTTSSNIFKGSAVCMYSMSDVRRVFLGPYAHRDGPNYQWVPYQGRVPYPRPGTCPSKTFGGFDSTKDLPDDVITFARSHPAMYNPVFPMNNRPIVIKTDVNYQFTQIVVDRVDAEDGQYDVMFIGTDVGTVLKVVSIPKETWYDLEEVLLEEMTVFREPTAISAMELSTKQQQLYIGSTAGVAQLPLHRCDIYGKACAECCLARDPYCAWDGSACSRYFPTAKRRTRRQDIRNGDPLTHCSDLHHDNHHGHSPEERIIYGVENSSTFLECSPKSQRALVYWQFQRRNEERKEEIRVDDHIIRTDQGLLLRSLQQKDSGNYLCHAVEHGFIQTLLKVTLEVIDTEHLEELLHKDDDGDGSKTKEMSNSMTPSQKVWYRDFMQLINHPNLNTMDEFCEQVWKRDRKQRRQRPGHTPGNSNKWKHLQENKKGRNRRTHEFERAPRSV
Experimental: as §1

[8] = molecular target: T5, human HER4 recombinant protein (human, UniProt Q15303 26-649, limits assumed); assay: ELISA, coated human HER4, anti-human Fc-HRP
T5 sequence (looked up): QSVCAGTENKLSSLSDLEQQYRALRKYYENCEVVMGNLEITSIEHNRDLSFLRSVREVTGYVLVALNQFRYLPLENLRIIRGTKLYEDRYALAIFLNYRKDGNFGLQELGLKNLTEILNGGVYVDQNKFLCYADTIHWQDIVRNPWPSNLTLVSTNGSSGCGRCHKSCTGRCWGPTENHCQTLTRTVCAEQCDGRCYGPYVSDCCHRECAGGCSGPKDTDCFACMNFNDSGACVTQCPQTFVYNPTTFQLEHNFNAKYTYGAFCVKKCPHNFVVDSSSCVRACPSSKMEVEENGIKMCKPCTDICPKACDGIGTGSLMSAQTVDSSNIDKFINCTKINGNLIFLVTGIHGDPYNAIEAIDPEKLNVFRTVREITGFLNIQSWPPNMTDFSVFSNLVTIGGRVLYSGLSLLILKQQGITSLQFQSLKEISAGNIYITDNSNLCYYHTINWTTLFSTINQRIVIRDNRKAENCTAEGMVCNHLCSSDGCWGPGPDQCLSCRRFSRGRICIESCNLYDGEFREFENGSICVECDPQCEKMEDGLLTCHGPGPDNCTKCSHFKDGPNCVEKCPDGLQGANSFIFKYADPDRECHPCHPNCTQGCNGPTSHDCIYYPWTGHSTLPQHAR
Experimental: as §1

[9] = molecular target: T1, EGFR on EGFR and cMET co-expressed …; assay: flow cytometry, EBC-1 cells (co-express EGFR and cMET; both arms contribute)
[10] = molecular target: T2, cMET on EGFR and cMET co-expressed …; assay: as above

T2 sequence (P08581 25-1390 limits assumed): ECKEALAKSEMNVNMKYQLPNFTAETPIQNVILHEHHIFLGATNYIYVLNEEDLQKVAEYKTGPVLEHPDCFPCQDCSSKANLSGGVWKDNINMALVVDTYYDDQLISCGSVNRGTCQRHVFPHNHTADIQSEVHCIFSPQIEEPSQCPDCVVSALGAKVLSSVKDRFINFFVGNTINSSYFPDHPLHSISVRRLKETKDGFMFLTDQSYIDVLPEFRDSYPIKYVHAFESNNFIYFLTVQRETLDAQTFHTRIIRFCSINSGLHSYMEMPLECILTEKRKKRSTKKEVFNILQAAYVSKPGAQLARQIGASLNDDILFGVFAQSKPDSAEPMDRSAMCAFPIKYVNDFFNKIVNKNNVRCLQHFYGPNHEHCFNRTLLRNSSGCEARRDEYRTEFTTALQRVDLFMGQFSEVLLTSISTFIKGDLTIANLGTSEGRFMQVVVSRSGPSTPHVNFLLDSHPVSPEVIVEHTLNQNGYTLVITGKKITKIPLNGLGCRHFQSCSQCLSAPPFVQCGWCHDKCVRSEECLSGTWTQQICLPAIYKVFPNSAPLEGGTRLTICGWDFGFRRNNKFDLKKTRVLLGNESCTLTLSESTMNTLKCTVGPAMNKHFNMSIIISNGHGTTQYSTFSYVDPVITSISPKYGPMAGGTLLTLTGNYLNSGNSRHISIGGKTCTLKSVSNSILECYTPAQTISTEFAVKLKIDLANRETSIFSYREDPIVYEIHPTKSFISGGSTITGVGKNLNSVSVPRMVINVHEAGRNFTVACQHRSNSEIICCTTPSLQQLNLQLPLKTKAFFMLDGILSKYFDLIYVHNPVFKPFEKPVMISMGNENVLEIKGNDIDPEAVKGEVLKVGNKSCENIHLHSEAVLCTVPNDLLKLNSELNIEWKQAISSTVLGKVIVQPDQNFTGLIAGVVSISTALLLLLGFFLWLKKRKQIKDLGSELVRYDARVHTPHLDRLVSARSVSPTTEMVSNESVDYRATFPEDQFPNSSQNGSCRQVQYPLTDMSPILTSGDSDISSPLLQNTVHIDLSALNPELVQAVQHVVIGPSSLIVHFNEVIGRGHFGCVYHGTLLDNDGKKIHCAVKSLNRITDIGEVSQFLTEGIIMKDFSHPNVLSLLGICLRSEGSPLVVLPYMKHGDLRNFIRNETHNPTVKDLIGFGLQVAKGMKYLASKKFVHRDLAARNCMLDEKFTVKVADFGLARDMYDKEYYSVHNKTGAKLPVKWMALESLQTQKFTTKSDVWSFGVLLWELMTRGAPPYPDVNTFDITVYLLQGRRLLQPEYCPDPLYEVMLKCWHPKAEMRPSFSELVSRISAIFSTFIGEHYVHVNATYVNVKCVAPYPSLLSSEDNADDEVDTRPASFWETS

EC50 (read off the curve) [1]: ~2 nM
EC50 (read off the curve) [2]: ~2 nM
binding result [3]: no binding (tested: about 130 nM)
EC50 (read off the curve) [4]: ~10 nM
EC50 (read off the curve) [5]: ~10 nM
EC50 (read off the curve) [6]: ~4 nM
binding result [7]: no binding (tested: about 120 nM)
binding result [8]: no binding (tested: about 130 nM)
EC50 (read off the curve) [9]: ~1 nM
EC50 (read off the curve) [10]: ~1 nM
B1: AZD9592-Ab (bispecific antibody, human IgG1, kappa, lambda)
anti EGFR heavy chain: QVQLVQSGAEVKKPGSSVKVSCKASGGTFSDNDFSWVRQAPGQGLEWMGAIVAVFRTETYAQKFQDRVKITADISTRTTYMELSSLRSEDTAVYYCARRLMSAISGPGAPLLMWGQGTLVTVSSASTKGPSVCPLAPSSKSTSGGTAALGCLVKDYFPEPVTVSWNSGALTSGVHTFPAVLQSSGLYSLSSVVTVPSSSLGTQTYICNVNHKPSNTKVDKRVEPKSVDKTHTCPPCPAPEFEGGPSVFLFPPKPKDTLMISRTPEVTCVVVDVSHEDPEVKFNWYVDGVEVHNAKTKPREEQYNSTYRVVSVLTVLHQDWLNGKEYKCKVSNKALPASIEKTISKAKGQPREPQVYTLPPCREEMTKNQVSLWCLVKGFYPSDIAVEWESNGQPENNYKTTPPVLDSDGSFFLYSKLTVDKSRWQQGNVFSCSVMHEALHNHYTQKSLSLSPGK
anti EGFR light chain: QSALTQPRSVSGSPGQSVTISCTGTSSDVGGYNYVSWYQQHPGKAPKLMIYDVSKRPSGVPDRFSGSKSGNTASLTISGLQAEDEADYYCSSYTSSDTLEIFGGGTKLTVLGQPKAAPSVTLFPPCSEELQANKATLVCLISDFYPGAVTVAWKADSSPVKAGVETTTPSKQSNNKYAASSYLSLTPEQWKSHRSYSCQVTHEGSTVEKTVAPTEVS
anti cMET heavy chain: QVQLVQSGAEVKKPGASVKVSCKASGYTFTDYYIHWVRQATGQGLEWMGWMNPNSGNTGYAQKFQGRVTMTRDTSISTAYMELSSLRSEDTAVYYCARGQGYTHSWGQGTMVTVSSASTKGPSVFPLAPSSKSTSGGTAALGCLVKDYFPEPVTVSWNSGALTSGVHTFPAVLQSSGLYSLSSVVTVPSSSLGTQTYICNVNHKPSNTKVDKRVEPKSCDKTHTCPPCPAPEFEGGPSVFLFPPKPKDTLMISRTPEVTCVVVDVSHEDPEVKFNWYVDGVEVHNAKTKPREEQYNSTYRVVSVLTVLHQDWLNGKEYKCKVSNKALPASIEKTISKAKGQPREPQVCTLPPSREEMTKNQVSLSCAVKGFYPSDIAVEWESNGQPENNYKTTPPVLDSDGSFFLVSKLTVDKSRWQQGNVFSCSVMHEALHNHYTQKSLSLSPGK
anti cMET light chain: DIQMTQSPSTLSASVGDRVTITCRASEGIYHWLAWYQQKPGKAPKLLIYKASSLASGVPSRFSGSGSGTEFTLTISSLQPDDFATYYCQQYSNYPPTFGGGTKLEIKRTVAAPSVFIFPPSDEQLKSGTASVVCLLNNFYPREAKVQWKVDNALQSGNSQESVTEQDSKDSTYSLSSTLTLSKADYEKHKVYACEVTHQGLSSPVTKSFNRGEC
notes: also called RAA22/B09-TM
